# From patent US20240190996A1 (Regeneron, published 2024)
# B1: REGN7508 (antibody, human IgG4 S228P, kappa, V domains shown)
# VH: QVQLVESGGGLVKPGGSLRLSCAASGFTFSDYSMNWIRQAPGKGLEWISYISFSGNSIYYADSVKGRFTISRDNAKNSLYLQMNSLRVEDTAIYYCTSRDWGYAFDIWGQGTMVTVSS
# VL: DIQMTQSPSFLSASLGDRVTITCQASQDISNYLNWYQVKPGKAPKLLIYDASNLETGVPSRFSGSGSGTDFTFTISSLQPEDIATYFCQQYDNLPYIFGQGTKLEIKR
# notes: also called Subject mAb [REGN7508]; subject anti-FXI mAb
# B2: REGN9932 (antibody, human IgG4 S228P, kappa, V domains shown)
# VH: QVQLVESGGGVVQPGRSLRLSCAASGFTFSNYEMHWVRQTPGKGLEWVALIWYDGSNKYSGDSVKGRFTISRDNSKSTLYLQMNSLTAEDTAVYYCTGITGTEDAFDVWGQGTMVTVSS
# VL: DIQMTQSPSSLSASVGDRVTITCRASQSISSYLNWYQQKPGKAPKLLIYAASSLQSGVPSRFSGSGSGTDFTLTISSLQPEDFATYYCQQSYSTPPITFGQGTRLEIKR
# notes: also called anti-FXI mAb [REGN9932]
# Assays:
# [1] = target: T1, mfFXI.mmh (REGN3883) (cynomolgus monkey (Macaca fascicularis), UniProt A0A2K5VVW4 19-624); assay: SPR (Biacore), mAb captured on anti-hFc, antigen injected, 25C
# T1 construct: also called monkey FXI.mmh; recombinant cynomolgus monkey FXI; not shown: mmH tag
# T1 sequence (A0A2K5VVW4 entry or part of it): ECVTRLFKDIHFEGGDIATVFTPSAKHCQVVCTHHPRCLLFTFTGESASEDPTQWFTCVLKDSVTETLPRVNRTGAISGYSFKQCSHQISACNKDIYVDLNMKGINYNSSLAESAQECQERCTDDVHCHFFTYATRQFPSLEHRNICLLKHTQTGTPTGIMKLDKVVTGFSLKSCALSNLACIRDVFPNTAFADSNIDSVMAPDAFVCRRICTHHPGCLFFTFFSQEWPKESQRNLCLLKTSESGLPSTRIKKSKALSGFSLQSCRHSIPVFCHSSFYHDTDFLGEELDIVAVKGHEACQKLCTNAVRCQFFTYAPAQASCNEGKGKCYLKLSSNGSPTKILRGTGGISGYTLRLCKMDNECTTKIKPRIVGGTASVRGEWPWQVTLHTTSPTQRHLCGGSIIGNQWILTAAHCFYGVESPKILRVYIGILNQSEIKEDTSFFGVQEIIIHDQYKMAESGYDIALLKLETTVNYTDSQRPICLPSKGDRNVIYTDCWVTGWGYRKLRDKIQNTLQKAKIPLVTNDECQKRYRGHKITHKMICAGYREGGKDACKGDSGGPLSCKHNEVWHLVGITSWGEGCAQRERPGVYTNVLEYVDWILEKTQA
# [2] = target: T1, mfFXI.mmh (REGN3883); assay: SPR (Biacore), REGN7508 captured on anti-hFcG, antigen injected, 25C, pH 7.4
# Protocol: (§1) Each concentration was tested in duplicate.
# (§2) Specific binding signals were obtained by a double referencing procedure and plotted as SPR sensorgrams. […] The kinetic parameters were obtained by globally fitting these specific binding signals to a 1:1 binding model with mass transport limitation. The equilibrium dissociation constant (KD) was calculated from the ratio of the dissociation rate constant to the association rate constant (KD=kd/ka).
# [3] = target: T2, hFXI.mmh (REGN3848) (human, UniProt P03951 19-625); assay: as above
# T2 construct: Human FXI with a C-terminal myc-myc-hexahistidine tag; also called human FXI.mmh; recombinant human FXI
# T2 sequence (P03951 other isoform, or with tags, fused parts or gaps limits assumed): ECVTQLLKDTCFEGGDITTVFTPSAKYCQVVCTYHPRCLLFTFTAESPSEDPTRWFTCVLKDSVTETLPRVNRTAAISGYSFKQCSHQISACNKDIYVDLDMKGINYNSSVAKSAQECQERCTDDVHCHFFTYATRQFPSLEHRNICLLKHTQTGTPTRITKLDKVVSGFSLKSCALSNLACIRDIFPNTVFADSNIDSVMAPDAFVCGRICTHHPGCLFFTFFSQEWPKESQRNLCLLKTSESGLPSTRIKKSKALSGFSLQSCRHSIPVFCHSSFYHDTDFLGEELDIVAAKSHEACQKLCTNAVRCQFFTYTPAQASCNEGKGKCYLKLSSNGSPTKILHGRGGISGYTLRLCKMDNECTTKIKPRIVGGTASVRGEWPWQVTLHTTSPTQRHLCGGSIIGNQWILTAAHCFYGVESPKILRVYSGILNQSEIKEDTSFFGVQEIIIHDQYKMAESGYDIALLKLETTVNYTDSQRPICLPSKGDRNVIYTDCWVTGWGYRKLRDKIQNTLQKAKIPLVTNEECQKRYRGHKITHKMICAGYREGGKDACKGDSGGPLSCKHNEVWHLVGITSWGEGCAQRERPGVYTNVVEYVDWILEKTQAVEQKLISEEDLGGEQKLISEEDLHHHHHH
# Protocol: as §1, §2
# [4] = target: T3, human coagulation factor XI (hFXI), plasma-derived (ERL) (human, UniProt P03951 19-625); assay: as above
# T3 construct: also called hFXI (ERL); human FXI
# T3 sequence (P03951 19-625): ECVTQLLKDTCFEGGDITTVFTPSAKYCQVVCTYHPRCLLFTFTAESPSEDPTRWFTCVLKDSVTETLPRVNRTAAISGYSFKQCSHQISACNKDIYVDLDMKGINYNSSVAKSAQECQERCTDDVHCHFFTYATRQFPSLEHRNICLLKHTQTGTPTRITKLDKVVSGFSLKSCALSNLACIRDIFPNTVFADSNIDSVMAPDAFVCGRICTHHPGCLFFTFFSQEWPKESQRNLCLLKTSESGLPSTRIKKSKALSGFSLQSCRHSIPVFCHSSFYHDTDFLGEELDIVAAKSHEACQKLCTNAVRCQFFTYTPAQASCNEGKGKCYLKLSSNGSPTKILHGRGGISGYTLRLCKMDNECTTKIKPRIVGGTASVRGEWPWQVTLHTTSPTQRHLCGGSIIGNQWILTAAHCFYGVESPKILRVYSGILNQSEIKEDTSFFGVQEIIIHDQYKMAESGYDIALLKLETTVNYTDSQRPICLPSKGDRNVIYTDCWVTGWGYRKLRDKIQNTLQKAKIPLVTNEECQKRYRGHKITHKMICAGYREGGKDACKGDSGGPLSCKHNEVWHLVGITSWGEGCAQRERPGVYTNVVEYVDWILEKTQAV
# Protocol: as §1, §2
# [5] = target: T4, human activated factor XI (hFXIa), plasma-derived (ERL) (human, UniProt P03951 19-387; P03951 388-625); assay: as above
# T4 construct: After cleavage each subunit is two disulfide-linked chains; also called hFXIa (ERL); human FXIa
# T4 sequence (P03951 19-387 limits assumed, chain 1 of 2): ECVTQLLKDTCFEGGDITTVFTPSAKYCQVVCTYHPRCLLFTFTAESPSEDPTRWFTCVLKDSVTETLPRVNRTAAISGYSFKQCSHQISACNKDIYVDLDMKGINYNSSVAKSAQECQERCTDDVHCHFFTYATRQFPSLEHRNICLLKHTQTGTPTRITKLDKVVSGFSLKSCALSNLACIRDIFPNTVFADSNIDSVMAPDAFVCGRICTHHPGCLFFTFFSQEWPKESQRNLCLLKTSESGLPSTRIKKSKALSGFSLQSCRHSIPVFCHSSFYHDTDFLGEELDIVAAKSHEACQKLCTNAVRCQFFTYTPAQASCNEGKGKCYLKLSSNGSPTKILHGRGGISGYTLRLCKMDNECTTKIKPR
# T4 sequence (P03951 388-625 limits assumed, chain 2 of 2): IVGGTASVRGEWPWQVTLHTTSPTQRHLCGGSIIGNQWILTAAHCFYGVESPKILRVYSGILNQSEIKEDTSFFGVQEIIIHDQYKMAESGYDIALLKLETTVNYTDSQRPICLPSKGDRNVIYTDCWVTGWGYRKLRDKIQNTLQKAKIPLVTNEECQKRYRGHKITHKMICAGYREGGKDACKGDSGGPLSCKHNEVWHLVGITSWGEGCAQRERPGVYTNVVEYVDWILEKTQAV
# Protocol: as §1, §2
# [6] = target: T2, hFXI.mmh (REGN3848); assay: SPR (Biacore), mAb captured on anti-hFc, antigen injected, 37C
# Protocol: (§3) Then, all FXI solutions were injected on Biacore 8K at 30 μL/min for 180 seconds and dissociation was monitored for 10 minutes.
# [7] = target: T5, mFXI.mmH (mouse, UniProt Q91Y47 19-624); assay: SPR (Biacore), REGN7508 captured on anti-hFcG, mFXI.mmH injected, 25C, pH 7.4
# T5 construct: also called recombinant mouse FXI; not shown: mmH tag
# T5 sequence (Q91Y47 19-624): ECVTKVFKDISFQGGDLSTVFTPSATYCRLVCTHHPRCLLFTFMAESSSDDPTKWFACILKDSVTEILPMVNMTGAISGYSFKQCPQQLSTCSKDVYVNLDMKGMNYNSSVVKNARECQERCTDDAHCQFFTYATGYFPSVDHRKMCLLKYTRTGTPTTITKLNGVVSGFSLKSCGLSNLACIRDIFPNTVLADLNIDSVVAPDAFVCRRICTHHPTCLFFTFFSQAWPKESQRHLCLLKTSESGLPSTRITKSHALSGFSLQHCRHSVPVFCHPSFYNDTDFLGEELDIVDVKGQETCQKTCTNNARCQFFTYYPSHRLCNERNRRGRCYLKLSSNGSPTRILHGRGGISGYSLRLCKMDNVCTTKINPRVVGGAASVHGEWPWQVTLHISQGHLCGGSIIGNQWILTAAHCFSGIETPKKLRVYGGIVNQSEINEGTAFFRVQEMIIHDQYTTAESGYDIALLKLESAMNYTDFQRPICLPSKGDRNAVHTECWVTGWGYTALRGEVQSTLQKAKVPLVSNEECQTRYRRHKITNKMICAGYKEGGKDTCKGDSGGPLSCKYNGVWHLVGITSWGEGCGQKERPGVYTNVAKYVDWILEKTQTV
# [8] = target: T3, human coagulation factor XI (hFXI), …; assay: SPR (Biacore), mAb captured on anti-hFc, antigen injected, 25C; 25 C
# Protocol: as §3
# [9] = target: T1, mfFXI.mmh (REGN3883); assay: SPR (Biacore), mAb captured on anti-hFc, antigen injected, 37C
# Protocol: as §3
# [10] = target: T4, human activated factor XI (hFXIa), …; assay: as above
# Protocol: as §3
# [11] = target: T2, hFXI.mmh (REGN3848); assay: SPR (Biacore), mAb captured on anti-hFc, antigen injected, 25C
# Protocol: as §3
# [12] = target: T3, human coagulation factor XI (hFXI), …; assay: as above
# Protocol: as §3
# [13] = target: T4, human activated factor XI (hFXIa), …; assay: as above
# Protocol: as §3
# [14] = target: T6, rbFXI.mmH (rabbit, UniProt G1SSQ6 19-623); assay: SPR (Biacore), REGN7508 captured on anti-hFcG, rbFXI.mmH injected, 25C, pH 7.4
# T6 construct: also called recombinant rabbit FXI; not shown: mmH tag
# T6 sequence (G1SSQ6 entry or part of it): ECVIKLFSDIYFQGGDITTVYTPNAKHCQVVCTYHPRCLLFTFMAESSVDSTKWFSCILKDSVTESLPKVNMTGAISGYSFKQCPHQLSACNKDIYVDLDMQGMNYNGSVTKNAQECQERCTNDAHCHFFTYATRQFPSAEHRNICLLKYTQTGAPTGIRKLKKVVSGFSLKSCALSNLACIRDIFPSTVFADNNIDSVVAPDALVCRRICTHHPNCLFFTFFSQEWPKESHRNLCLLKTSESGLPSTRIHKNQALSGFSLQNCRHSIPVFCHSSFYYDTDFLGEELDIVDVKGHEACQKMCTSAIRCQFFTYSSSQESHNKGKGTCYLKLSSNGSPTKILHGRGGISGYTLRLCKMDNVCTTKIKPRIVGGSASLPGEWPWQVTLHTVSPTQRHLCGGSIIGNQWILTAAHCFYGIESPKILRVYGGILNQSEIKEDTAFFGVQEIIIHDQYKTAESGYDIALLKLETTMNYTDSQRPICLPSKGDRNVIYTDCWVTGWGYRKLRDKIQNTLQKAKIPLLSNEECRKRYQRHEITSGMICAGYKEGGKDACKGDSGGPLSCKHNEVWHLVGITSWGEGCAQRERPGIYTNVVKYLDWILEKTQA
# [15] = target: T3, human coagulation factor XI (hFXI), …; assay: SPR (Biacore), mAb captured on anti-hFc, antigen injected, 37C
# Protocol: as §3
# [16] = target: T3, human coagulation factor XI (hFXI), …; assay: cell-based or functional assay
# [17] = target: T4, human activated factor XI (hFXIa), …; assay: cell-based or functional assay
binder,measurement,setting,value
B1,Kd,[1],≤ 4.81 pM
same,koff,[1],≤ 1e-05 s⁻¹
same,kon,[1],2.08e+06 M⁻¹ s⁻¹
same,t½,[1],≥ 19.2 h
same,Kd,[2],3.73 pM
same,koff,[2],9.62e-06 s⁻¹
same,kon,[2],2.58e+06 M⁻¹ s⁻¹
same,t1/2,[2],20 h
same,Kd,[3],8.07 pM
same,koff,[3],2.7e-05 s⁻¹
same,kon,[3],3.34e+06 M⁻¹ s⁻¹
same,t1/2,[3],7.13 h
same,Kd,[4],3 pM
same,koff,[4],9.36e-06 s⁻¹
same,kon,[4],3.12e+06 M⁻¹ s⁻¹
same,t1/2,[4],20.6 h
same,Kd,[5],10.2 pM
same,koff,[5],3.61e-05 s⁻¹
same,kon,[5],3.55e+06 M⁻¹ s⁻¹
same,t1/2,[5],5.33 h
same,Kd,[6],32.6 pM
same,koff,[6],8.86e-05 s⁻¹
same,kon,[6],2.71e+06 M⁻¹ s⁻¹
same,t½,[6],2.17 h
same,binding result,[7],no binding (tested: 50 nM)
same,Kd,[8],≤ 4.54 pM
same,Kd,[9],43.5 pM
same,koff,[9],0.000111 s⁻¹
same,kon,[9],2.56e+06 M⁻¹ s⁻¹
same,t½,[9],1.73 h
same,Kd,[10],256 pM
same,koff,[10],0.000121 s⁻¹
same,kon,[10],475000 M⁻¹ s⁻¹
same,t½,[10],1.58 h
same,Kd,[11],≤ 5.34 pM
same,koff,[11],≤ 1e-05 s⁻¹
same,kon,[11],1.87e+06 M⁻¹ s⁻¹
same,t½,[11],≥ 19.2 h
same,koff,[12],≤ 1e-05 s⁻¹
same,kon,[12],2.2e+06 M⁻¹ s⁻¹
same,t½,[12],≥ 19.2 h
same,Kd,[13],≤ 31.1 pM
same,koff,[13],≤ 1e-05 s⁻¹
same,kon,[13],321000 M⁻¹ s⁻¹
same,t½,[13],≥ 19.2 h
same,binding result,[14],no binding (tested: 250 nM)
same,Kd,[15],≤ 3.09 pM
same,koff,[15],≤ 1e-05 s⁻¹
same,kon,[15],3.24e+06 M⁻¹ s⁻¹
same,t½,[15],≥ 19.2 h
B2,Kd,[1],≤ 64.4 pM
same,koff,[1],≤ 1e-05 s⁻¹
same,kon,[1],155000 M⁻¹ s⁻¹
same,t½,[1],≥ 19.2 h
same,"IC50 [M], FXI, 0.13% plasma (chromogenic FXa generation, BIOPHEN Factor XIa kit)",[16],1.9e-10 M
same,"IC50 [M], FXIa, 0.13% plasma (chromogenic FXa generation, BIOPHEN Factor XIa kit)",[17],> 1e-08 M
same,Kd,[6],387 pM
same,koff,[6],8.77e-05 s⁻¹
same,kon,[6],226000 M⁻¹ s⁻¹
same,t½,[6],2.19 h
same,Kd,[9],268 pM
same,koff,[9],8.6e-05 s⁻¹
same,kon,[9],321000 M⁻¹ s⁻¹
same,t½,[9],2.24 h
same,Kd,[11],≤ 116 pM
same,koff,[11],≤ 1e-05 s⁻¹
same,kon,[11],86200 M⁻¹ s⁻¹
same,t½,[11],≥ 19.2 h
same,Kd,[12],≤ 119 pM
same,koff,[12],≤ 1e-05 s⁻¹
same,kon,[12],83800 M⁻¹ s⁻¹
same,t½,[12],≥ 19.2 h
same,Kd,[15],36.5 pM
same,koff,[15],≤ 1e-05 s⁻¹
same,kon,[15],274000 M⁻¹ s⁻¹
same,t½,[15],≥ 19.2 h
